Test results as given in paper PMC11367332, “Neutralizing IL-38 activates γδ T cell-dependent antitumor immunity and sensitizes for chemotherapy” (Journal for Immunotherapy of Cancer, 2024).

Experiments:
PyMT tumors [1] = assay: Therapeutic model of chemoresistance in PyMT mice (doxorubicin with or without anti-IL-38); format: in vivo, mouse
Description: The C57BL/6N IL-38 knockout (KO) strain was previously described.[10] For the polyoma virus middle T oncoprotein (PyMT) model, IL-38 KO mice were crossed with the PyMT mammary carcinoma strain, previously bred into a C57BL/6 background.[19] Only female PyMT mice were used. Tumor development in PyMT wildtype (WT) versus IL-38 KO mice was monitored once a week for up to 8 weeks, starting at 12 weeks using electronic calipers. For IL-38 neutralization, PyMT WT mice were intraperitoneally (i.p.) injected with 100 µg of either anti-IL-38 antibody (e04, in-house generated) or IgG1 (Human IgG1, Bio X Cell) isotype control. […] The treatment started at week 13 and tumor growth was monitored once a week. Group sizes were determined based on prior experience with the model. […]
(§1) For preparing single-cell suspensions, PyMT tumors were processed with the Tumor Dissociation Kit (Miltenyi Biotec) and gentleMACS Dissociator (Miltenyi Biotec) according to standard protocols. […] Samples were acquired with an FACSymphony A5 or FACSymphony S6 flow cytometer (BD Bioscience) and the data was analyzed in FlowJo software V.10 (Tree Star). […] For the gating strategy, fluorescence minus one controls were applied. […]

CD8+ T cells = assay: CD8+ T-cell proliferation assay (co-culture with cDC1); format: cell-based, mouse; details: 5 µM added daily
Procedure: CD8+ T cells from murine spleen and cDC1 from PyMT tumors treated in vivo with anti-IL-38 antibodies were isolated by FACS-sorting. CD8+ T cells and cDC1 were co-cultured at a ratio of 1:40 in the T-cell medium. Cells were pre-incubated with either 100 nM anti-IL-38 or 100 nM IgG isotype control, activated with mouse T-cell activator CD3/CD28 Dynabeads (Thermo Fisher Scientific) and supplemented with 10 ng/mL rm IL-2 (PrepoTech) at days 0, 2 and 5 and 50 μM β-mercaptoethanol daily. For the Notch signaling blockade, 5 µM γ-secretase inhibitor DAPT (Abcam) was added daily. For CD8+ T cell culture, 100 ng/mL rm IL-38 (AdipoGen) was added daily. Supernatants were collected for cytokine determination at days 3, 5 and 7 and cell proliferation was analyzed by flow cytometry.
To measure the cytokines in PyMT tumors and cell culture supernatants, Cytometric Bead Array Flex Sets (BD Biosciences) were used for murine IL-17A and IFN-γ. The samples were acquired via FACS and analyzed with FlowJo Software V.10 (Tree Star).

[2] = target: T1, mIL-38-Avi (murine IL-38 with Avi tag) (Mus musculus, UniProt Q8R459); assay: BLI; Octet RED96; mIL-38-Avi immobilised on streptavidin biosensors at 2 µg/mL; Fab from 250 to 7.8 nM in 1:1 dilution steps; 150 mM NaCl, 50 mM Tris-HCl pH 7.5, 0.1% BSA, 0.02% Tween 20; 1:1 analyte model with global fit; details: both partners purified
T1 construct: interleukin-38 (IL-38, IL-1 family member 10), mouse; PDB 8Q3J holds mIL-38 and may show the limits of the construct; also called mouse IL-38

murine IL-38 = target: T2, murine IL-38 (Mus musculus, UniProt Q8R459); assay: Neutralization of IL-38 effect on IL-17 production by splenic γδ T cells; format: cell-based; details: γδ T cells on anti-CD3 plates, IL-1 and IL-23 + IL-38 and Fab, supernatants after 5 days
T2 construct: purchased AdipoGen AG-40B-0101-C010
T2 sequence (Q8R459 1-152): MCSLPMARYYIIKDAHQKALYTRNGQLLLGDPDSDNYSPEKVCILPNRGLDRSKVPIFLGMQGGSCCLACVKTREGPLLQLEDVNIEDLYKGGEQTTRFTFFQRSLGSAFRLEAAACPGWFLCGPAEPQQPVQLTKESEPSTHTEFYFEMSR
Procedure: Figure 2 IL-38 neutralization slows down tumor development and increases T-cell infiltrates into tumors. (A) Kinetic analysis and dissociation constants (Kd) of Fabs e04 and h06 selected by phage display binding to mouse IL-38 determined by biolayer interferometry. (B) Mouse splenic γδ T cells were seeded on anti-CD3 coated plates and treated with IL-1 and IL-23 + IL-38 and Fab fragments putatively recognizing […] murine IL-38. IL-17 levels in supernatants were analyzed after 5 days. Unrelated Fab fragments c05 and d09 were used as negative controls. Data are from four independent experiments. (C) SDS-PAGE analysis of purified e04 IgG. (D) Binding profile of e04 IgG and mouse IL-38 determined by biolayer interferometry. (E) Crystal structure of Fab E04 binding to recombinant IL-38. […] (F) Tumor growth was monitored when the first tumor reached 0.6 cm in diameter. […] (I) The overall immune cell profile (n=6), (J) γδ T-cell subsets (n=5–6) and (K) intracellularly produced cytokines (n=10–11) were determined by flow cytometry after 5 weeks of treatment. (L) Representative images of PyMT tumors stained for CD8, CD4 and CD3 and (M) quantification of indicated cells is shown. […] Data are shown as means±SEM. *p<0.05, **p<0.01, ***p<0.001; p values were calculated using unpaired multiple t-tests with FDR correction. […]

[3] = target: T1, mIL-38-Avi (murine IL-38 with Avi tag); assay: BLI; Octet RED96; mIL-38-Avi immobilised on streptavidin biosensors at 2 µg/mL; IgG from 250 to 7.8 nM in 1:1 dilution steps; 150 mM NaCl, 50 mM Tris-HCl pH 7.5, 0.1% BSA, 0.02% Tween 20; 1:2 bivalent model; details: both partners purified
PyMT tumors [4] = assay: IL-38 neutralization in PyMT mammary carcinoma model; format: in vivo, mouse
Description: The C57BL/6N IL-38 knockout (KO) strain was previously described.[10] For the polyoma virus middle T oncoprotein (PyMT) model, IL-38 KO mice were crossed with the PyMT mammary carcinoma strain, previously bred into a C57BL/6 background.[19] Only female PyMT mice were used. Tumor development in PyMT wildtype (WT) versus IL-38 KO mice was monitored once a week for up to 8 weeks, starting at 12 weeks using electronic calipers. For IL-38 neutralization, PyMT WT mice were intraperitoneally (i.p.) injected with 100 µg of either anti-IL-38 antibody (e04, in-house generated) or IgG1 (Human IgG1, Bio X Cell) isotype control. For CD8+ T cell depletion, PyMT WT mice were injected with 100 µg of anti-IL-38 antibody (e04) in combination with either 250 µg of anti-CD8 antibody (anti-mouse CD8α, Bio X Cell) or IgG2b (rat IgG2b, Bio X Cell) isotype control. In both experiments, the treatment started once the first tumor reached a size of 0.6 cm in diameter. The antibodies were injected once a week for 5 weeks. In the therapeutic model of chemoresistance, PyMT WT mice were i.p. injected with 5 mg/kg of doxorubicin (Teva Pharma) in combination with either IgG1 isotype control or anti-IL-38 antibody. The mice were treated with five once-weekly cycles of chemotherapy once the first tumor reached a size of 1.0 cm in diameter. For γδ T-cell receptor (TCR) neutralization, mice were separated into four groups, in which PyMT WT and IL-38 KO mice were treated with either anti-γδ TCR antibody (UC7-13D5, Bio X Cell) or IgG (polyclonal Armenian hamster, Bio X Cell) isotype control once a week for 5 weeks. Mice were i.p. injected once with 500 µg of antibodies, followed by 4 weekly injections of 200 µg.[20] The treatment started at week 13 and tumor growth was monitored once a week. Group sizes were determined based on prior experience with the model. No exclusion criteria were defined and no animals were excluded. Due to the nature of the model (treatment start for every single animal depends on individual parameters), simple randomization (no confounder minimization) was done and the experimenters were not blinded. Data analysis was done in a blinded manner. Animals were housed in groups at the Zentrale Forschungseinrichtung (animal testing facility), Faculty of Medicine, Goethe University Frankfurt. […]
as §1

Molecule: COc1cccc2c1C(=O)c1c(O)c3c(c(O)c1C2=O)C[C@@](O)(C(=O)CO)C[C@@H]3O[C@H]1C[C@H](N)[C@H](O)[C@H](C)O1 [doxorubicin]
- IL-38 expression in the tumor (PyMT tumors [1]; Il1f10 mRNA by quantitative PCR, PyMT WT mice): increased IL-38 expression in the tumor
- Tumor progression (PyMT tumors [1]; late-stage setting, start at tumor size 1 cm, doxorubicin 5 mg/kg i.p., five once-weekly cycles, antibody 100 µg/mouse): did not

Molecule: C[C@H](NC(=O)Cc1cc(F)cc(F)c1)C(=O)N[C@H](C(=O)OC(C)(C)C)c1ccccc1 [DAPT]
- cDC1-induced IFN-γ production by CD8+ T cells (CD8+ T cells; cytometric bead array days 3, 5 and 7): strongly inhibited
- cDC1-induced proliferation of CD8+ T cells (CD8+ T cells; flow cytometry at day 7): strongly inhibited

B1: Fab e04 (Fab, V domains shown)
VH: EVQLVESGGGLVQPGGSLRLSCAASGFSFSSSSIHWVRQAPGKGLEWVASISPYYSYTSYADSVKGRFTISADTSKNTAYLQMNSLRAEDTAVYYCARTVRGSKKPYFSGWAMDYWGQGTLVTVSS
VL: DIQMTQSPSSLSASVGDRVTITCRASQSYYSYVAWYQQKPGKAPKLLIYSASSLYSGVPSRFSGSRSGTDFTLTISSLQPEDFATYYCQQVFAPITFGQGTKVEIK
notes: heavy chain (Fd) of Fab e04 from a synthetic Fab-phage library; light chain of Fab e04 from a synthetic Fab-phage library; Selected by phage display against murine IL-38; the library is described in the online supplemental methods; also called anti-IL-38 Fab fragment; source: E. coli BL21, purified (HiTrap Protein G)
- Kd [2]: 6.7 nM

B2: Fab e04: Fab fragment selected by phage display from a synthetic Fab-phage library, binds murine IL-38 (antibody, V domains shown)
VH: B1 VH
VL: B1 VL
- Effect on IL-38 inhibition of IL-17 production by γδ T cells (murine IL-38): neutralized the inhibitory effect of IL-38 on IL-17 production by γδ T cells

B3: e04 IgG (Fab e04 converted into full-length IgG1) (antibody, V domains shown)
VH: B1 VH
VL: B1 VL
notes: variable part as the heavy chain of m2 (PDB 8Q3J), converted into full-length IgG1 format; as the light chain of m2 (PDB 8Q3J); IgG1; also called IgG e04; anti-IL-38 antibody (e04); source: Expi293F, transfected, purified from supernatant (HiTrap Protein G)
- Kd [3]: 0.68 nM

B4: IgG e04: Fab e04 converted into full-length IgG1 format; in-house generated IL-38 neutralizing antibody (antibody, V domains shown)
VH: B1 VH
VL: B1 VL
- Expression of the PD-1/PD-L1 immune checkpoint in tumors (PyMT tumors [4]; CD8+ T cells, macrophages, tumor cells, flow cytometry): did not observe an impact
- Tumor development (PyMT tumors [4]; PyMT WT mice, 100 µg i.p. once a week for 5 weeks, start at first tumor 0.6 cm, vs IgG1 isotype): marked delay in tumor development
- Abundance of CD8+ T cells and γδ T cells in tumors (PyMT tumors [4]; flow cytometry after 5 weeks of treatment, vs IgG1 isotype): increased abundance of CD8+ T cells and γδ T cells in the tumors
- Cytokine-producing γδ T cells in tumors (PyMT tumors [4]; intracellular cytokine staining, flow cytometry, after 5 weeks of treatment): IFN-γ rather than IL-17-producing γδ T cells were increased
